As a reminder, the Kd is the free concentration of one partner at which half of the binding sites on the other are occupied at equilibrium, for simple one-to-one binding. Read a low Kd as tighter binding.

This is an account of results in publication PMC7192608.

Holding throughout (test): EMSA
(In general: A gel shift assay detects complexes by their altered migration in electrophoresis.)

Data set [1] addresses T1, Rap1 RCT (C-terminal domain) (Saccharomyces cerevisiae, UniProt P11938 600-827).
T1 sequence: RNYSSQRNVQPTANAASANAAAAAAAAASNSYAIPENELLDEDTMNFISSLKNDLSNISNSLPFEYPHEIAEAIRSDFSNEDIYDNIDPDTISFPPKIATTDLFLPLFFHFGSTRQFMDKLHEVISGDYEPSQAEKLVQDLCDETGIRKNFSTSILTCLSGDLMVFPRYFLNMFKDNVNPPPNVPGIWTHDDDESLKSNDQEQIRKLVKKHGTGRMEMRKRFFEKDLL

In data set [2] the target is T2, Rap1-DBD (Saccharomyces cerevisiae, UniProt P11938 360-598).
T2 sequence: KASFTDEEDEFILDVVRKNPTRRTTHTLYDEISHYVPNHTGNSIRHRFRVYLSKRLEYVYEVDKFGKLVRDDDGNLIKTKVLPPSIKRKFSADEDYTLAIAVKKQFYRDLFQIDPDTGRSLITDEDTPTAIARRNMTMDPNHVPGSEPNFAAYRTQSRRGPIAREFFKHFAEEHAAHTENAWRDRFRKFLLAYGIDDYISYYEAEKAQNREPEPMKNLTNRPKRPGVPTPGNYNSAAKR

In data set [3] the target is T3, Rap1 BRCT domain (Saccharomyces cerevisiae, UniProt P11938 1-358).
T3 sequence: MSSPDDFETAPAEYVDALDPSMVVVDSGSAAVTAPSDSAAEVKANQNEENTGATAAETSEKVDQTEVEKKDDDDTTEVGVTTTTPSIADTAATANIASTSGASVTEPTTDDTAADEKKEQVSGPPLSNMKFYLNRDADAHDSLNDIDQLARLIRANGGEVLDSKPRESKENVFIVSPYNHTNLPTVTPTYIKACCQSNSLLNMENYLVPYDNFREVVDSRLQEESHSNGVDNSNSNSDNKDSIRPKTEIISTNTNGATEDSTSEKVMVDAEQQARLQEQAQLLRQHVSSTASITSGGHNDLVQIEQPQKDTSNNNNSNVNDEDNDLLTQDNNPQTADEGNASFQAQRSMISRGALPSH

Regarding AATTCTGGGTGTGTGGGTGTGTGGGTGTGTGGGTGTGG (structured_DNA) [4-G3], the binding result in data set [1] and in data set [3] was “no binding” throughout. The molecule further gave a Kd in data set [2] of 28 nM. The molecule TGGGTGTGTGGGTGTGTGGGTGTGTGGG (structured_DNA) [4-G3 no tail] displayed a Kd in data set [2] of 22 nM. In other words, the double-digit nanomolar range. The same measure, in the same setting: in the case of TTGGGTGGGTGGGTGGGTT (structured_DNA) [T-loops] it was 45 nM.
